The target of this assay is T1, CSA-DDB1 (human, UniProt Q13216 1-396; Q16531 1-1140).
T1 construct: CSA, human, full-length coding gene; pAC8-CSA-Strep II clone; DDB1, human, full-length coding gene, synthesized and codon-optimized for insect cells; also called CSA/DDB1 complex; CSA-DDB1 alone; source: Sf9, co-expressed (biGBac), purified (Nickel-chelating sepharose, Resource Q, Superdex 200)
The assay can be described thus: nano-differential scanning fluorimetry; complexes at 2 µM in 20 mM HEPES pH 7.5, 150 mM NaCl, 5% glycerol, 0.5 mM TCEP; Prometheus NT.48, 350/330 nm ratio, 1 °C/min from 20 to 90 °C; compared with CSA-DDB1 alone. Conditions: both partners purified.

T1 sequence (Q13216 whole entry, chain 1 of 2): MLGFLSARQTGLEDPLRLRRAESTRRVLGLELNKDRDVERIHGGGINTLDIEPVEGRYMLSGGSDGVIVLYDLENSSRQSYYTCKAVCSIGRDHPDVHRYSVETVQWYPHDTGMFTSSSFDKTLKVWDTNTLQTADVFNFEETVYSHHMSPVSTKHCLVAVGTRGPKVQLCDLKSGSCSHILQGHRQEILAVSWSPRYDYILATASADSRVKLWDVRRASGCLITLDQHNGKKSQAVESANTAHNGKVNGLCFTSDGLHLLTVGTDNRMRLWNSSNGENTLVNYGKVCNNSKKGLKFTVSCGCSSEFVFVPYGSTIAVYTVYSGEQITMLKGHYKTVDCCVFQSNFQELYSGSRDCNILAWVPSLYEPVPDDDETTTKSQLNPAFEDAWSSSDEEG
T1 sequence (Q16531 whole entry, chain 2 of 2): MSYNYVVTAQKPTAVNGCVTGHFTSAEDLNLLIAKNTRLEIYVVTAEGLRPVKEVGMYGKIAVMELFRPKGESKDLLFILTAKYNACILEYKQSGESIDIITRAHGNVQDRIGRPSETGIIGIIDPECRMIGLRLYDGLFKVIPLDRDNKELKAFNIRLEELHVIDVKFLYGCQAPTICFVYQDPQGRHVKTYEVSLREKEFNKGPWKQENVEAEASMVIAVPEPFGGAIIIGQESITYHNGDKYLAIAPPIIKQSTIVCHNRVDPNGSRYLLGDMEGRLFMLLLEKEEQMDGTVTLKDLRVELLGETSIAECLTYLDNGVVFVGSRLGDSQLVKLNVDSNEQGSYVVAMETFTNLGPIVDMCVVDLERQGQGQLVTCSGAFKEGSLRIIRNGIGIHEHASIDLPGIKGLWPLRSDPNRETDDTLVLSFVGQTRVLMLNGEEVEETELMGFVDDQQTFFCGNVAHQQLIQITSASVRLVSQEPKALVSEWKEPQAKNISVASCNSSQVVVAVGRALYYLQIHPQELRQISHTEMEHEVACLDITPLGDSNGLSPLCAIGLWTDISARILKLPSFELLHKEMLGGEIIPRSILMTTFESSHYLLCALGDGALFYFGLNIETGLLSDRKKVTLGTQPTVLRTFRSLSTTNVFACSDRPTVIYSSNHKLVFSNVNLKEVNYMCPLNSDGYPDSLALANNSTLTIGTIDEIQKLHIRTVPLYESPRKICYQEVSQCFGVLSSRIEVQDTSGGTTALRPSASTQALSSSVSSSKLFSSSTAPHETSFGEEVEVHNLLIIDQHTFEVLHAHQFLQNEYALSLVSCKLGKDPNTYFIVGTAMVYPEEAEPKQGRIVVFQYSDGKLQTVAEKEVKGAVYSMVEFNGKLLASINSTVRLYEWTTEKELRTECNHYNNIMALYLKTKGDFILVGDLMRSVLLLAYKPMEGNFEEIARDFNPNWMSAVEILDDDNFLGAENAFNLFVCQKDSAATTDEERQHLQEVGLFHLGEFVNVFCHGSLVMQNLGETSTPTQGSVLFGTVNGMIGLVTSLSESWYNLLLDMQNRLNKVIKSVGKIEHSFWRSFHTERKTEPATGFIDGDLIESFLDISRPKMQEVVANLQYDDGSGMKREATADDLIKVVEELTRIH

B1: DDA1^1-52 (domain or fragment)
chain: not shown
notes: DDA1, human, residues 1-52; Used as the complex CSA-DDB1-DDA1^1-52; also called DDA1 C-terminal truncation; DDA1Δ
Regarding B1, the binding result is given as “binds”.

Values taken from PMC11286758, “The small CRL4^CSA ubiquitin ligase component DDA1 regulates transcription-coupled repair dynamics” (Nature Communications, 2024).
